Measurements from paper PMC4067515.

Molecular target: recombinant Bet v 1 trimer (birch)
Assay: SEC

In the case of recombinant Bet v 1 trimer, the stoichiometry N is reported as 2.
